Laboratory results published in patent US20210388110A1 (published 2021).
Where a chain is given by its changes, count along the chain named.

B1: TR01H023-E22Hh/none-Hi-Kn010G3/L0000-k0 (antibody, human IgG1, kappa, L234A L235A, N297A)
heavy: QVQLVESGGGLVQPGGSLRLSCAASGFTFSNAWMHWVRQAPGKGLEWVAQIKGKSQNYATYYAESVKGRFTISRADSKNSIYLQMNSLKTEDTAVYYCRYVHYSASYGVDIWGQGTTVTVSSASTKGPSVFPLAPSSKSTSGGTAALGCLVKDYFPEPVTVSWNSGALTSGVHTFPAVLQSSGLYSLSSVVTVPSSSLGTQTYICNVNHKPSNTKVDKKVEPKSCDKTHTCPPCPAPEAAGGPSVFLFPPKPKDTLMISRTPEVTCVVVDVSHEDPEVKFNWYVDGVEVHNAKTKPREEQYASTYRVVSVLTVLHQDWLNGKEYKCKVSNKALPAPIEKTISKAKGQPREPQVYTLPPSRCELTKNQVSLSCAVKGFYPSDIAVEWESNGQPENNYKTTPPVLDSDGSFFLVSKLTVDKSRWQQGNVFSCSVMHEALHNHYTQKSLSLSPDYKDDDDK
chain: EPKSSDKTHTCPPCPAPELLGGPSVFLFPPKPKDTLMISRTPEVTCVVVDVSHEDPEVKFNWYVDGVEVHNAKTKPREEQYNSTYRVVSVLTVLHQDWLNGKEYKCKVSNKALPAPIEKTISKAKGQPREPQVCTLPPSRDELTKNQVSLWCLVKGFYPSDIAVEWESNGQPENNYKTTPPVLDSDGSFFLYSKLTVDKSRWQQGNVFSCSVMHEALHNRYTQKSLSLSP
light: DIVMTQSPLSLPVTPGEPASISCRSSQSLVHSNRNTYLHWYQQKPGQAPRLLIYKVSNRFSGVPDRFSGSGSGTDFTLKISRVEAEDVGVYYCGQGTQVPYTFGQGTKLEIKRTVAAPSVFIFPPSDEQLKSGTASVVCLLNNFYPREAKVQWKVDNALQSGNSQESVTEQDSKDSTYSLSSTLTLSKADYEKHKVYACEVTHQGLSSPVTKSFNRGEC
notes: one-arm antibody (single Fab) with Fab-less hinge-Fc chain Hi-Kn010G3
B2: TR01H075-E22Hh/none-Hi-Kn010G3/L0000-k0 (antibody, human IgG1, kappa, L234A L235A, N297A)
heavy: B1 heavy with G16R, G53D, A75D, I81L, S104A, I111Y
chain: B1 chain
light: B1 light
notes: as for B1
B3: TR01H067-E22Hh/none-Hi-Kn010G3/L0226-k0 (antibody, human IgG1, kappa, L234A L235A, N297A)
heavy: B1 heavy with G16R, G53D, A75D, I81L, S104A, I111A
chain: B1 chain
light: B1 light with L29P, L38I, G94I
notes: as for B1
B4: TR01H054-E22Hh/none-Hi-Kn010G3/L0000-k0 (antibody, human IgG1, kappa, L234A L235A, N297A)
heavy: B1 heavy with G16R, G53D, I81L, I111Y
chain: B1 chain
light: B1 light
notes: as for B1
B5: TR01H082-E22Hh/none-Hi-Kn010G3/L0270-k0 (antibody, human IgG1, kappa, L234A L235A, N297A)
heavy: B1 heavy with G16R, G53D, A75D, I81L, S104A, S106G, I111A
chain: B1 chain
light: B1 light with N35Q
notes: as for B1
B6: TR01H090-E22Hh/none-Hi-Kn010G3/L0011-k0 (antibody, human IgG1, kappa, L234A L235A, N297A)
heavy: B1 heavy with G53D, A75D, I81L, S104A, S106G, I111A
chain: B1 chain
light: B1 light with S28P
notes: as for B1
B7: TR01H040-E22Hh/none-Hi-Kn010G3/L0247-k0 (antibody, human IgG1, kappa, L234A L235A, N297A)
heavy: B1 heavy with G16R, G53D, I111A
chain: B1 chain
light: B1 light with L29P, L38I, H39Q, G94I
notes: as for B1
B8: TR01H067-E22Hh/none-Hi-Kn010G3/L0222-k0 (antibody, human IgG1, kappa, L234A L235A, N297A)
heavy: B1 heavy with G16R, G53D, A75D, I81L, S104A, I111A
chain: B1 chain
light: B1 light with L29P, L38I, H39Q, G94Y
notes: as for B1
B9: TR01H067-E22Hh/none-Hi-Kn010G3/L0011-k0 (antibody, human IgG1, kappa, L234A L235A, N297A)
heavy: B1 heavy with G16R, G53D, A75D, I81L, S104A, I111A
chain: B1 chain
light: B1 light with S28P
notes: as for B1
B10: TR01H040-E22Hh/none-Hi-Kn010G3/L0226-k0 (antibody, human IgG1, kappa, L234A L235A, N297A)
heavy: B1 heavy with G16R, G53D, I111A
chain: B1 chain
light: B1 light with L29P, L38I, G94I
notes: as for B1
B11: TR01H057-E22Hh/none-Hi-Kn010G3/L0000-k0 (antibody, human IgG1, kappa, L234A L235A, N297A)
heavy: B1 heavy with G16R, G53D, A75D, I81L, I111A
chain: B1 chain
light: B1 light
notes: as for B1
B12: TR01H082-E22Hh/none-Hi-Kn010G3/TR01L017-k0 (antibody, human IgG1, kappa, L234A L235A, N297A)
heavy: B1 heavy with G16R, G53D, A75D, I81L, S104A, S106G, I111A
chain: B1 chain
light: B1 light with L29P, L38I, H39Q, Q42L, A48S, R50Q, G94Y
notes: as for B1
B13: TR01H040-E22Hh/none-Hi-Kn010G3/L0246-k0 (antibody, human IgG1, kappa, L234A L235A, N297A)
heavy: B1 heavy with G16R, G53D, I111A
chain: B1 chain
light: B1 light with L29P, L38I, H39Q, G94S
notes: as for B1
B14: TR01H082-E22Hh/none-Hi-Kn010G3/L0222-k0 (antibody, human IgG1, kappa, L234A L235A, N297A)
heavy: B1 heavy with G16R, G53D, A75D, I81L, S104A, S106G, I111A
chain: B1 chain
light: B1 light with L29P, L38I, H39Q, G94Y
notes: as for B1
B15: TR01H068-E22Hh/none-Hi-Kn010G3/L0000-k0 (antibody, human IgG1, kappa, L234A L235A, N297A)
heavy: B1 heavy with L11V, G53D, A75D, I81L, S104A, I111A
chain: B1 chain
light: B1 light
notes: as for B1
B16: TR01H053-E22Hh/none-Hi-Kn010G3/L0000-k0 (antibody, human IgG1, kappa, L234A L235A, N297A)
heavy: B1 heavy with G16R, G53D, I81L, I111A
chain: B1 chain
light: B1 light
notes: as for B1
B17: TR01H035-E22Hh/none-Hi-Kn010G3/L0000-k0 (antibody, human IgG1, kappa, L234A L235A, N297A)
heavy: B1 heavy with G16R, I111Y
chain: B1 chain
light: B1 light
notes: as for B1
B18: TR01H082-E22Hh/none-Hi-Kn010G3/L0271-k0 (antibody, human IgG1, kappa, L234A L235A, N297A)
heavy: B1 heavy with G16R, G53D, A75D, I81L, S104A, S106G, I111A
chain: B1 chain
light: B1 light with S28P, L29P, N35Q
notes: as for B1
B19: TR01H067-E22Hh/none-Hi-Kn010G3/TR01L015-k0 (antibody, human IgG1, kappa, L234A L235A, N297A)
heavy: B1 heavy with G16R, G53D, A75D, I81L, S104A, I111A
chain: B1 chain
light: B1 light with L29P, Q42L, A48S, R50Q
notes: as for B1
B20: TR01H040-E22Hh/none-Hi-Kn010G3/L0227-k0 (antibody, human IgG1, kappa, L234A L235A, N297A)
heavy: B1 heavy with G16R, G53D, I111A
chain: B1 chain
light: B1 light with L29P, L38I, G94L
notes: as for B1
B21: TR01H070-E22Hh/none-Hi-Kn010G3/L0000-k0 (antibody, human IgG1, kappa, L234A L235A, N297A)
heavy: B1 heavy with L11V, G53D, A75D, I81L, S104A, I111Y
chain: B1 chain
light: B1 light
notes: as for B1
B22: TR01H040-E22Hh/none-Hi-Kn010G3/L0249-k0 (antibody, human IgG1, kappa, L234A L235A, N297A)
heavy: B1 heavy with G16R, G53D, I111A
chain: B1 chain
light: B1 light with S25P, L29P, L38I, H39Q, G94S
notes: as for B1
B23: TR01H067-E22Hh/none-Hi-Kn010G3/TR01L018-k0 (antibody, human IgG1, kappa, L234A L235A, N297A)
heavy: B1 heavy with G16R, G53D, A75D, I81L, S104A, I111A
chain: B1 chain
light: B1 light with R24Q, S25A, Q27E, L29P, Q42L, A48S, R50Q
notes: as for B1
B24: TR01H040-E22Hh/none-Hi-Kn010G3/L0248-k0 (antibody, human IgG1, kappa, L234A L235A, N297A)
heavy: B1 heavy with G16R, G53D, I111A
chain: B1 chain
light: B1 light with S25P, L29P, L38I, H39Q, G94Y
notes: as for B1
B25: TR01H024-E22Hh/none-Hi-Kn010G3/L0000-k0 (antibody, human IgG1, kappa, L234A L235A, N297A)
heavy: B1 heavy with I111A
chain: B1 chain
light: B1 light
notes: as for B1
B26: TR01H067-E22Hh/none-Hi-Kn010G3/L0248-k0 (antibody, human IgG1, kappa, L234A L235A, N297A)
heavy: B1 heavy with G16R, G53D, A75D, I81L, S104A, I111A
chain: B1 chain
light: B1 light with S25P, L29P, L38I, H39Q, G94Y
notes: as for B1
B27: TR01H034-E22Hh/none-Hi-Kn010G3/L0000-k0 (antibody, human IgG1, kappa, L234A L235A, N297A)
heavy: B1 heavy with G16R, I111A
chain: B1 chain
light: B1 light
notes: as for B1
B28: TR01H082-E22Hh/none-Hi-Kn010G3/TR01L020-k0 (antibody, human IgG1, kappa, L234A L235A, N297A)
heavy: B1 heavy with G16R, G53D, A75D, I81L, S104A, S106G, I111A
chain: B1 chain
light: B1 light with R24Q, S25A, Q27E, L29P, L38I, H39Q, Q42L, A48S, R50Q, G94Y
notes: as for B1
B29: TR01H040-E22Hh/none-Hi-Kn010G3/TR01L007-k0 (antibody, human IgG1, kappa, L234A L235A, N297A)
heavy: B1 heavy with G16R, G53D, I111A
chain: B1 chain
light: B1 light with R24Q, S25A, Q27E, Q42L, A48S, R50Q
notes: as for B1
B30: TR01H031-E22Hh/none-Hi-Kn010G3/L0000-k0 (antibody, human IgG1, kappa, L234A L235A, N297A)
heavy: B1 heavy with L11V, Q56N
chain: B1 chain
light: B1 light
notes: as for B1
B31: TR01H058-E22Hh/none-Hi-Kn010G3/L0000-k0 (antibody, human IgG1, kappa, L234A L235A, N297A)
heavy: B1 heavy with G16R, G53D, A75D, I81L, I111Y
chain: B1 chain
light: B1 light
notes: as for B1
B32: TR01H056-E22Hh/none-Hi-Kn010G3/L0000-k0 (antibody, human IgG1, kappa, L234A L235A, N297A)
heavy: B1 heavy with G16R, G53D, A75D, I81L
chain: B1 chain
light: B1 light
notes: as for B1
B33: TR01H082-E22Hh/none-Hi-Kn010G3/L0272-k0 (antibody, human IgG1, kappa, L234A L235A, N297A)
heavy: B1 heavy with G16R, G53D, A75D, I81L, S104A, S106G, I111A
chain: B1 chain
light: B1 light with S28P, N35Q
notes: as for B1
B34: TR01H082-E22Hh/none-Hi-Kn010G3/L0268-k0 (antibody, human IgG1, kappa, L234A L235A, N297A)
heavy: B1 heavy with G16R, G53D, A75D, I81L, S104A, S106G, I111A
chain: B1 chain
light: B1 light with L29P, L38I, H39Q, G94V
notes: as for B1
B35: TR01H067-E22Hh/none-Hi-Kn010G3/L0215-k0 (antibody, human IgG1, kappa, L234A L235A, N297A)
heavy: B1 heavy with G16R, G53D, A75D, I81L, S104A, I111A
chain: B1 chain
light: B1 light with S28P, L29P, L38I
notes: as for B1

Target: T1, soluble human CD3ε chain (human, UniProt P07766 23-126, limits assumed)
T1 construct: also called human CD3 epsilon chain
Experiment: SPR (Biacore), soluble human CD3ε chain

T1 sequence (P07766 23-126 limits assumed): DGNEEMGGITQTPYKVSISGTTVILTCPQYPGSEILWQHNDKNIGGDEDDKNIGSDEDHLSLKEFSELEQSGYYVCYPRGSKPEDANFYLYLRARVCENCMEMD

Row | Binder | Kd
1 | B1 | 79.4 nM
2 | B2 | 98.8 nM
3 | B3 | 132 nM
4 | B4 | 77.9 nM
5 | B5 | 74.2 nM
6 | B6 | 69.5 nM
7 | B7 | 100 nM
8 | B8 | 76.3 nM
9 | B9 | 71.8 nM
10 | B10 | 80.1 nM
11 | B11 | 112 nM
12 | B12 | 109 nM
13 | B13 | 92.8 nM
14 | B14 | 101 nM
15 | B15 | 101 nM
16 | B16 | 82.3 nM
17 | B17 | 84.9 nM
18 | B18 | 68.2 nM

Row | Binder | Kd
19 | B19 | 86.4 nM
20 | B20 | 101 nM
21 | B21 | 120 nM
22 | B22 | 111 nM
23 | B23 | 52.6 nM
24 | B24 | 78.9 nM
25 | B25 | 108 nM
26 | B26 | 139 nM
27 | B27 | 91.1 nM
28 | B28 | 106 nM
29 | B29 | 68.2 nM
30 | B30 | 75.5 nM
31 | B31 | 115 nM
32 | B32 | 73.2 nM
33 | B33 | 74.4 nM
34 | B34 | 136 nM
35 | B35 | 74.1 nM
